According to PMC10977726 (2024):

T1: rabbit serum albumin (rabbit, UniProt P49065 25-608, biotin)
T1 chain: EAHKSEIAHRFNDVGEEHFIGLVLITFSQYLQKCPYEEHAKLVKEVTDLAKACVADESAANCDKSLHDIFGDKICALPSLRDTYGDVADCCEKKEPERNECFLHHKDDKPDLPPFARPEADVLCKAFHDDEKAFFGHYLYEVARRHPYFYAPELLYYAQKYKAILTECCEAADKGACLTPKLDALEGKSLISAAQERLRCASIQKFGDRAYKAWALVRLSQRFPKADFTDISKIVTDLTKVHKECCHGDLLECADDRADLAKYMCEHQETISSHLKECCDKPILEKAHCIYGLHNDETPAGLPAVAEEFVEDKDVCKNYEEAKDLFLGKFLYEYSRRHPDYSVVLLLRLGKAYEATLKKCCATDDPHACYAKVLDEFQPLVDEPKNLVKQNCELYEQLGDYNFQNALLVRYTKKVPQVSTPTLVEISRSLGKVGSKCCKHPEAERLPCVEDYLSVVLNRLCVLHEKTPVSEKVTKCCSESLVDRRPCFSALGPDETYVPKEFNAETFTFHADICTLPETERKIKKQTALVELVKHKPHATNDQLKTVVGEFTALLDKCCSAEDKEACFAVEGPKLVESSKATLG

B1: mouse IgG Fc (domain or fragment)
chain: VPRDCGCKPCICTVPEVSSVFIFPPKPKDVLTITLTPKVTCVVVDISKDDPEVQFSWFVDDVEVHTAQTQPREEQFNSTFRSVSELPIMHQDWLNGKEFKCRVNSAAFPAPIEKTISKTKGRPKAPQVYTIPPPKEQMAKDKVSLTCMITDFFPEDITVEWQWNGQPAENYKNTQPIMNTNGSYFVYSKLNVQKSNWEAGNTFTCSVLHEGLHNHHTEKSLSHSPGK
modifications: biotin
B2: rat serum albumin (natural protein)
chain: EAHKSEIAHRFKDLGEQHFKGLVLIAFSQYLQKCPYEEHIKLVQEVTDFAKTCVADENAENCDKSIHTLFGDKLCAIPKLRDNYGELADCCAKQEPERNECFLQHKDDNPNLPPFQRPEAEAMCTSFQENPTSFLGHYLHEVARRHPYFYAPELLYYAEKYNEVLTQCCTESDKAACLTPKLDAVKEKALVAAVRQRMKCSSMQRFGERAFKAWAVARMSQRFPNAEFAEITKLATDVTKINKECCHGDLLECADDRAELAKYMCENQATISSKLQACCDKPVLQKSQCLAEIEHDNIPADLPSIAADFVEDKEVCKNYAEAKDVFLGTFLYEYSRRHPDYSVSLLLRLAKKYEATLEKCCAEGDPPACYGTVLAEFQPLVEEPKNLVKTNCELYEKLGEYGFQNAVLVRYTQKAPQVSTPTLVEAARNLGRVGTKCCTLPEAQRLPCVEDYLSAILNRLCVLHEKTPVSEKVTKCCSGSLVERRPCFSALTVDETYVPKEFKAETFTFHSDICTLPDKEKQIKKQTALAELVKHKPKATEDQLKTVMGDFAQFVDKCCKAADKDNCFATEGPNLVARSKEALA
modifications: biotin
B3: rabbit IgG Fc (domain or fragment)
chain: PSTCSKPTCPPPELLGGPSVFIFPPKPKDTLMISRTPEVTCVVVDVSQDDPEVQFTWYINNEQVRTARPPLREQQFNSTIRVVSTLPITHQDWLRGKEFKCKVHNKALPAPIEKTISKARGQPLEPKVYTMGPPREELSSRSVSLTCMINGFYPSDISVEWEKNGKAEDNYKTTPAVLDSDGSYFLYNKLSVPTSEWQRGDVFTCSVMHEALHNHYTQKSISRSPGK
modifications: biotin

Experiments:
Assay in all cases: SPR
rabbit IgG Fc = target: B3
mouse IgG Fc = target: B1
protein A = protein A (UniProt P38507 37-477)
Ig-CON-5 (synthetic) = target: Ig-CON-5 (synthetic)
Hs-CHR-3 (synthetic) = target: Hs-CHR-3 (synthetic)
rat serum albumin = target: B2
human serum albumin = human serum albumin (human, UniProt P02768 25-609, biotin)
rabbit serum albumin = target: T1, rabbit serum albumin
mouse serum albumin = mouse serum albumin (mouse, UniProt P07724 25-608, biotin)
Chain of mouse serum albumin (P07724 25-608): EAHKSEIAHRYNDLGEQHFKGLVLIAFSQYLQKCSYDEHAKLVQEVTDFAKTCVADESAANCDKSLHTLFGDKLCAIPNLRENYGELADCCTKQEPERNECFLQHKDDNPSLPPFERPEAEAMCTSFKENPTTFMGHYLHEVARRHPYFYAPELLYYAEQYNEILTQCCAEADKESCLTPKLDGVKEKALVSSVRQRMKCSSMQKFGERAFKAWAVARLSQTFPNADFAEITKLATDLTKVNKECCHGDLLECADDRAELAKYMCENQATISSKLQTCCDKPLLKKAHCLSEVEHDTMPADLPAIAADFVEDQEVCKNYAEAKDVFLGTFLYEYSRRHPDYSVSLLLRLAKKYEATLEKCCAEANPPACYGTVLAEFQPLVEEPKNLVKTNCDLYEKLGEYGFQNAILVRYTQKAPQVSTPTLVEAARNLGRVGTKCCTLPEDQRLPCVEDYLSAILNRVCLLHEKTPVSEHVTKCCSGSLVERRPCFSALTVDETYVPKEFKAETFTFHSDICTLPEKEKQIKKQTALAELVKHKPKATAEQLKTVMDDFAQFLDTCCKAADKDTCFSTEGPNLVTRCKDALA

Binder: VGECVRGRCSKISCCSQFGYCGKGPKYCG [Ig-AMP-1 (synthetic)]
- Kd (rabbit IgG Fc): ~1410 nM
- Kd (mouse IgG Fc): > 20000 nM

Binder: B1
- Kd (protein A): 1.5 nM
- Kd (Ig-CON-5 (synthetic)): ~1200 nM

Binder: VGECVRGRCSQISCCSQFGYCGKGPKYCG [Ig-AMP-3 (synthetic)]
- Kd (rabbit IgG Fc): ~1850 nM

Binder: B2
- Kd (Hs-CHR-3 (synthetic)): 2000 nM

Binder: RLIEDICLPRWGCLWEDD [SA21]
- Kd (rat serum albumin): 190 nM
- Kd (human serum albumin): 650 nM
- Kd (rabbit serum albumin): 100 nM
- Kd (mouse serum albumin): 160 nM

Binder: B3
- Kd (protein A): 0.167 nM
- Kd (Ig-CON-5 (synthetic)): > 30 nM

Binder: GCQAHYWYRVWFCKQDSDCLAGCVCGPNGFCG [Ig-EET-1 (synthetic)]
- Kd (rabbit IgG Fc): > 20000 nM
- Kd (mouse IgG Fc): > 20000 nM
